Data on 4 molecules can be found in patent US6558661 (Genentech, dated 2003).

The chains are these.
B1: human IFN-γ receptor-IgG-1 immunoadhesin (hIFNγR-IgG-1) (Fc fusion, not shown: a dimerising Fc or GST)
chain: EMGTADLGPSSVPTPTNVTIESYNMNPIVYWEYQIMPQVPVFTVEVKNYGVKNSEWIDACINISHHYCNISDHVGDPSNSLWVRVKARVGQKESAYAKSEEFAVCRDGKIGPPKLDIRKEEKQIMIDIFHPSVFVNGDEQEVDYDPETTCYIRVYNVYVRMNGSEIQYKILTQKEDDCDEIQCQLAIPVSSLNSQYCVSAEGVLHVWGVTTEKSKEVCITIFNSSIKG
B2: recombinant human IFN-γ (ligand, UniProt P01579 24-166, looked up)
chain: QDPYVKEAENLKKYFNAGHSDVADNGTLFLGILKNWKEESDRKIMQSQIVSFYFKLFKNFKDDQSIQKSVETIKEDMNVKFFNSNKKKRDDFEKLTNYSVTDLNVQRKAIHELIQVMAELSPAAKTGKRKRSQMLFRGRRASQ
modifications: radioiodinated with 125I using lactoperoxidase in the binding assays and ligand blots; unlabeled as competitor and in cell assays
notes: also called hIFN-γ
B3: recombinant murine IFN-γ (ligand, UniProt P01580 23-155, looked up)
chain: HGTVIESLESLNNYFNSSGIDVEEKSLFLDIWRNWQKDGDMKILQSQIISFYLRLFEVLKDNQAISNNISVIESHLITTFFSNSKAKKDAFMSIAKFEVNNPQVQRQAFNELIRVVHQLLPESSLRKRKRSRC
modifications: radioiodinated with 125I using lactoperoxidase in the binding assays and ligand blots; unlabeled as competitor and in cell assays
notes: also called mIFN-γ
B4: murine IFN-γ receptor-IgG-1 immunoadhesin (mIFNγR-IgG-1) (Fc fusion, UniProt P15261 26-254, looked up, not shown: a dimerising Fc or GST)
chain: ALTSTEDPEPPSVPVPTNVLIKSYNLNPVVCWEYQNMSQTPIFTVQVKVYSGSWTDSCTNISDHCCNIYEQIMYPDVSAWARVKAKVGQKESDYARSKEFLMCLKGKVGPPGLEIRRKKEEQLSVLVFHPEVVVNGESQGTMFGDGSTCYTFDYTVYVEHNRSGEILHTKHTVEKEECNETLCELNISVSTLDSRYCISVDGISSFWQVRTEKSKDVCIPPFHDDRKDS

For the experiment “recombinant human IFN-γ”, the target named is B2. Put plainly: cell-based or functional assay.
Experiment [1] concerns the target B1. Put plainly: equilibrium binding of [125I]hIFN-γ to immunoadhesin immobilized on anti-human IgG Fc coated wells, Scatchard analysis. As to the method: (§1) IFNv binding assays. The binding of IFNγR-IgGs to IFN-γ was analyzed essentially as described [Ashkenazi et al., *Proc. Natl. Acad. Sci. USA* 88: 10535–10539 (1991)]. Each IFNγR-IgG (1 μg/ml) was immobilized onto microtiter wells coated with goat anti-human IgG Fc antibody. […] Nonspecific binding was determined by omitting IFNγR-IgGs.
(§2) Binding of IFNγR-IqG to IFN-γ. We investigated the binding of the human and murine immunoadhesins to IFN-γ by equilibrium binding analysis (FIG. 2). […] 135: 300–305 (1985); Ucer, et al, Int. J. Cancer 36: 103–108 (1985)].

Experiment [2] concerns the target B4. Nature of the experiment: competition binding assay with [125I]mIFN-γ on immobilized mIFNγR-IgG (data not shown). As to the method: as §1, §2
In experiment [3] the target is B1. Put plainly: competition binding assay with [125I]hIFN-γ on immobilized hIFNγR-IgG (data not shown). The protocol:
as §1, §2

The target of experiment [4] is B4. Put plainly: equilibrium binding of [125I]mIFN-γ to immunoadhesin immobilized on anti-human IgG Fc coated wells, Scatchard analysis. The protocol: as §1, §2
The experiment “recombinant murine IFN-γ” concerns the target B3. Put plainly: cell-based or functional assay.

With B1, in the experiment with recombinant human IFN-γ, the “inhibition of hIFN-γ antiviral effect in EMCV-infected human A549 cells, IC50” value is approximately 8 nM and the “inhibition of hIFN-γ induction of ICAM-1 in human HeLa cells, half-maximal inhibition (IC50)” value was approximately 13 nM.
In general, Kd refers to the equilibrium constant for the complex coming apart. Low values mean tighter binding, high ones weaker binding. B2 came in with an equilibrium dissociation constant (Kd) in experiment [1] of 1.5 nM. Also, the binding result in experiment [2] is reported as “no binding”.
As to B3, the binding result in experiment [3] was “no binding”. Moreover, the Kd in experiment [4] came out at 3.3 nM.
In the case of B4, in the experiment with recombinant murine IFN-γ, the “inhibition of mIFN-γ antiviral effect in EMCV-infected mouse L929 cells, IC50” value is approximately 10 nM and the “inhibition of mIFN-γ induction of class I MHC antigen H-2Kk in mouse L929 cells, IC50” value was approximately 10 nM.
